{"source": "paper PMC9546771", "target": "His-tagged human FcRn/β2-microglobulin complex (human) (UniProt P55899)", "sequence (P55899 24-297, chain 1 of 2)": "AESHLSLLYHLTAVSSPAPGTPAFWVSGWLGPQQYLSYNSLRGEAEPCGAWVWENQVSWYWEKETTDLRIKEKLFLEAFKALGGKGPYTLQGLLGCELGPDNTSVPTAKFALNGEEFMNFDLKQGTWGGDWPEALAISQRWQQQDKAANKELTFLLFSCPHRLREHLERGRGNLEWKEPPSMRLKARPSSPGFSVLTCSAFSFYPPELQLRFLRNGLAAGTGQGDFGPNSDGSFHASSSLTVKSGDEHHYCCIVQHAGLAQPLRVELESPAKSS", "sequence (P61769 21-119, chain 2 of 2, further chain)": "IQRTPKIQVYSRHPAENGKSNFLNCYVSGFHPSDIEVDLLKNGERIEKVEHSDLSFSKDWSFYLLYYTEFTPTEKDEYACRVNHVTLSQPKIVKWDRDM", "assay": "SPR; Biacore 8K, CM5 chip; His-tagged human FcRn/β2-microglobulin captured (45-60 RU) on covalently linked anti-His antibody; IgG1 injected as two-fold, eight-step series 75 nM to 0.29 nM; 25 °C; 20 mM phosphate pH 6.0, 137 mM NaCl, 2.7 mM KCl, 0.05% Tween-20; 1:1 binding model, apparent constants, KD = kd/ka; n=3 …"}
{"substance": "IgG1-Campath (antibody)", "values": [{"measurement": "Kd", "result": 67.6, "unit": "nM"}, {"measurement": "koff", "result": 0.0439, "unit": "s⁻¹"}, {"measurement": "kon", "result": 649000, "unit": "M⁻¹ s⁻¹"}]}
